In patent US20240093255A1, “BIOSYNTHETIC PRODUCTION OF 2-FUCOSYLLACTOSE” (Conagen Inc., priority 2020, published 2024):

Columns and labels:
[1] = ASR library activity screen in clarified E. coli lysate; type: biochemical; conditions: 1 mM GDP-L-fucose, 80 mM lactose
Description: (§1) The enzymes listed in Table 5 were expressed in E. coli, and the clarified lysate was normalized based on the OD600 standard curve and used to screen for activity. To the clarified lysate was added 50 mM Tris pH 7.5, 1 mM GDP-L-fucose, and 80 mM lactose, and the reactions were quenched by heating at 99° C. for 10 minutes, and analyzed using the 2′-FL HPLC method.

[2] = Activity comparison of purified FutC enzymes; type: biochemical; conditions: 2 mM GDP-L-fucose, 40 mM lactose, 0.5 mg/mL FutC
Description: An assay was performed to compare the activity of the ASR11 and ASR12 enzymes to the activity of the parent construct, FutC #5 (SEQ ID NO: 29) and Helicobacter pylori FutC (HpFutC, SEQ ID NO: 61), an enzyme commonly used for 2′-FL production. Specifically, the assay conditions were: 2 mM GDP-L-fucose, 40 mM lactose, 50 mM Tris pH 7.5, and 0.5 mg/mL FutC.

[3] = In vitro enzyme cascade converting L-galactose to 2′-FL; type: biochemical; conditions: 10 mM L-galactose, 0.2 g/L FutC, quenched at 3 hours and 22 hours
Description: The reaction conditions were: 50 mM Tris pH 7.5, 10 mM L-galactose, 2 mM ATP, 2 mM GTP, 25 mM acetyl phosphate, 5 mM magnesium chloride, 5 mM potassium chloride, 0.15 mM NADP^+, 0.5 mM NADPH, 40 mM lactose, 0.23 g/L […] (FKP, SEQ ID NO: 1), 0.06 g/L an acetate kinase for the ATP recycling system (Gs Ack, SEQ ID NO: 65), 0.3 g/L At GMD (SEQ ID NO: 79), 0.75 g/L WcaG (SEQ ID NO: 7) and 0.2 g/L ASR 12 (SEQ ID NO: 109). The reactions were quenched by heating at 99° C. […] and analyzed using the 2′-FL LC-MS method.

[4] = expressed in E. coli
From the text: One of the major limitations for 2′-FL production is FutC activity. After screening various FutC candidates as described in Example 5, the inventors sought to identify mutant FutC candidates with even higher activity and improved solubility using bioinformatics. Based on ancestral sequence reconstruction (ASR) analysis, a series of ASR mutants were designed (Table 5) and screened for their solubility and activity.
as §1

B1: ASR 12: FutC mutant from ancestral sequence reconstruction, SEQ ID NO: 109 (protein)
chain: MIIIRMSGGLGNQMFQYALYRKLKSMGKEVKIDDITGYEDDNQRSIMLDVFGIDYDKATKEEITKLTDSSMDFLSRIRRKLFGRKSKEYQEEDFNFDPQVLEMDDAYLEGYFQSEKYFQDVREQLRKEFTFRKNSVPELSEQTKELRKQIENSNSVSIHIRRGDYLENSHAEIYGGICTDDYYKKAIEYMKEKFPDAKFYIFSNDIEWAKQHFKGENFVIVDASEENTGYADMYLMSKCKHHIIANSSFSWWGAWLNDNPEKIVIAPSKWLNNKECKDIYTDRMIKIDAKGEVRSEDYGVRTNSTVK
modifications: ASR12
With B1 the “activity compared to the rest of the ASR library” value [1] was “improved”, the “FutC activity compared to Hp FutC and parent FutC 5” value [2] was “outperformed Hp FutC as well as the parent construct” and the “2′-FL production compared to FutC #5 and Hp FutC” value [3] was “significantly higher”. For the same molecule, the “solubility compared to the rest of the ASR library” value [4] was “improved”.
